Measured values published in PMC4180972.

Target: Flag-TIN2 (human) (UniProt Q9BSI4)
Assay: co-IP

Chain of UniProt Q9BSI4 (Q9BSI4 whole entry): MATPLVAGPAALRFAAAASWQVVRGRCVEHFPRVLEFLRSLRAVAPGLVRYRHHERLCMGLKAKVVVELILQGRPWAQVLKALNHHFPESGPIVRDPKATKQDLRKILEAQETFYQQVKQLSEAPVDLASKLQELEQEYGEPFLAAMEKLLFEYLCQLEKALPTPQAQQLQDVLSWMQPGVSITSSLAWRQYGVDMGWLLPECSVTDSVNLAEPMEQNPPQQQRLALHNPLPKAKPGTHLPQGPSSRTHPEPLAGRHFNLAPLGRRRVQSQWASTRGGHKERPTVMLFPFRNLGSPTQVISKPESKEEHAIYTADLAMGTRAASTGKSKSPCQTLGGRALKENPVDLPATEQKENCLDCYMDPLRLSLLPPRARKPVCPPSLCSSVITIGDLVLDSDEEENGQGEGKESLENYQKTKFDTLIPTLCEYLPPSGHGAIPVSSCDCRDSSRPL

Which fold reduction in TIN2 association against wild-type TPP1 does the source give for “Flag-tagged TPP1-P491T (from UniProt Q96AP0-3 1-458) (natural protein)” here?
The fold reduction in TIN2 association against wild-type TPP1 was 2 fold.
